According to article PMC10213050 (Nature Communications, 2023):

B1: 6xHis-hRad51 (natural protein, human, UniProt Q06609 1-339, looked up)
chain: MAMQMQLEANADTSVEEESFGPQPISRLEQCGINANDVKKLEEAGFHTVEAVAYAPKKELINIKGISEAKADKILAEAAKLVPMGFTTATEFHQRRSEIIQITTGSKELDKLLQGGIETGSITEMFGEFRTGKTQICHTLAVTCQLPIDRGGGEGKAMYIDTEGTFRPERLLAVAERYGLSGSDVLDNVAYARAFNTDHQTQLLYQASAMMVESRYALLIVDSATALYRTDYSGRGELSARQMHLARFLRMLLRLADEFGVAVVITNQVVAQVDGAAMFAADPKKPIGGNIIAHASTTRLYLRKGRGETRICKIYDSPCLPEAEAMFAINADGVGDAKD
notes: human Rad51 recombinase; also called recombinant hRad51; source: E. coli BL21 (DE3), purified (Ni-NTA)

Key:
Settings in all cases: both partners purified
GST-RNF20 = biological target: T1, GST-RNF20 (human, UniProt Q5VTR2 1-975); assay: pull-down; GST-tagged Bre1 (WT, truncated or mutant) or GST-RNF20 on glutathione agarose beads, incubated with 6xHis-tagged Rad51, hRad51 or FBH1 at 4 °C for 4 h; wash 20 mM Tris-HCl pH 7.4, 200 mM NaCl; Western blot or Coomassie
T1 construct: RNF20, human homolog of Bre1; an asterisk marks the full-length band on the gel; also called full-length GST-RNF20

6xHis-hRad51 = biological target: B1; assay: pull-down; ssDNA pull-down: 5'-biotinylated 90-nt ssDNA on streptavidin magnetic beads, yeast or human Rad51 bound first, then Bre1 or RNF20N added; 37 °C; 42 mM Tris-HCl pH 7.5, 15 mM KCl, 90 mM NaCl, 2 mM ATP; Bre1 or RNF20N alone did not bind the ssDNA
GST-Bre1 = biological target: T2, GST-Bre1 (yeast (Saccharomyces cerevisiae), UniProt Q07457 1-700); assay: pull-down; GST-tagged Bre1 (WT, truncated or mutant) or GST-RNF20 on glutathione agarose beads, incubated with 6xHis-tagged Rad51, hRad51 or FBH1 at 4 °C for 4 h; wash 20 mM Tris-HCl pH 7.4, 200 mM NaCl; Western blot or Coomassie
T2 construct: Bre1, yeast ubiquitin E3 ligase; RBD 1-210, linker 211-614, RING 615-700; also called GST-tagged WT Bre1; recombinant GST-Bre1
T2 sequence (looked up): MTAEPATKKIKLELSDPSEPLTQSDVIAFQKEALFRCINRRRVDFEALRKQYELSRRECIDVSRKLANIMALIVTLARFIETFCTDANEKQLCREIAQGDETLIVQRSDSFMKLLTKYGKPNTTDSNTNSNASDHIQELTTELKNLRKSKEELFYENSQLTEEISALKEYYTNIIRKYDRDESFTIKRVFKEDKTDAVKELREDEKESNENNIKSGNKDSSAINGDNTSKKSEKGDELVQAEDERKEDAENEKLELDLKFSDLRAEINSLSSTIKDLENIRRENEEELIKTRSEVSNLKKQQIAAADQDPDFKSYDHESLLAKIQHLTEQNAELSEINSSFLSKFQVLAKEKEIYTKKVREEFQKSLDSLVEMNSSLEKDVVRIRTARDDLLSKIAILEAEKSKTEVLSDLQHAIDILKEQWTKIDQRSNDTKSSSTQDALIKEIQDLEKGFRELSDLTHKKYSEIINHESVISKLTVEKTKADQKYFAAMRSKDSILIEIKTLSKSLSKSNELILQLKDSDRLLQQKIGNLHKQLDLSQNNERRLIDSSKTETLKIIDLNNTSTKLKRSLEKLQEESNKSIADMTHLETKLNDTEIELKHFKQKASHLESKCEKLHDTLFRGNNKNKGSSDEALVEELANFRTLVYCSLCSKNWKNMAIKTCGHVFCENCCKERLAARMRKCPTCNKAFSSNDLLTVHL

[1] = biological target: T3, GST-tagged truncated Bre1 1-504 aa (yeast (Saccharomyces cerevisiae), UniProt Q07457 1-504); assay: as above
T3 construct: source: recombinant, GST-tagged
T3 sequence (looked up): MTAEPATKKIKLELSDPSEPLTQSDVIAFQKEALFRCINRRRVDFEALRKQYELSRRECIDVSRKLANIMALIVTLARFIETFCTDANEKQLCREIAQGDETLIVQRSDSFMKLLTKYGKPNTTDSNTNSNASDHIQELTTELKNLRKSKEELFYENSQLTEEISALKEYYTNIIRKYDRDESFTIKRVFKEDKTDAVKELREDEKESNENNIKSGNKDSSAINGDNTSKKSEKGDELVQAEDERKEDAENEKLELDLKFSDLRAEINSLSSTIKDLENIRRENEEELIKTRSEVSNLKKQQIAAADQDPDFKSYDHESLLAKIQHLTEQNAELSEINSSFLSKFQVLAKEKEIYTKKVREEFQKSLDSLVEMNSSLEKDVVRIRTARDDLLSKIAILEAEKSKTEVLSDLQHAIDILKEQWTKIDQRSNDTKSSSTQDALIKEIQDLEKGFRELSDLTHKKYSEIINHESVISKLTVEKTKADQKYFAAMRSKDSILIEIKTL

6xHis-Bre1 = biological target: T4, 6xHis-Bre1 (yeast (Saccharomyces cerevisiae), UniProt Q07457 1-700); assay: pull-down; ssDNA pull-down: 5'-biotinylated 90-nt ssDNA on streptavidin magnetic beads, yeast or human Rad51 bound first, then Bre1 or RNF20N added; 37 °C; 42 mM Tris-HCl pH 7.5, 15 mM KCl, 90 mM NaCl, 2 mM ATP; Bre1 or RNF20N alone did not bind the ssDNA
T4 construct: Bre1, yeast ubiquitin E3 ligase; also called WT Bre1; wild-type Bre1; source: E. coli BL21 (DE3), purified (Ni-NTA)
T4 sequence (looked up): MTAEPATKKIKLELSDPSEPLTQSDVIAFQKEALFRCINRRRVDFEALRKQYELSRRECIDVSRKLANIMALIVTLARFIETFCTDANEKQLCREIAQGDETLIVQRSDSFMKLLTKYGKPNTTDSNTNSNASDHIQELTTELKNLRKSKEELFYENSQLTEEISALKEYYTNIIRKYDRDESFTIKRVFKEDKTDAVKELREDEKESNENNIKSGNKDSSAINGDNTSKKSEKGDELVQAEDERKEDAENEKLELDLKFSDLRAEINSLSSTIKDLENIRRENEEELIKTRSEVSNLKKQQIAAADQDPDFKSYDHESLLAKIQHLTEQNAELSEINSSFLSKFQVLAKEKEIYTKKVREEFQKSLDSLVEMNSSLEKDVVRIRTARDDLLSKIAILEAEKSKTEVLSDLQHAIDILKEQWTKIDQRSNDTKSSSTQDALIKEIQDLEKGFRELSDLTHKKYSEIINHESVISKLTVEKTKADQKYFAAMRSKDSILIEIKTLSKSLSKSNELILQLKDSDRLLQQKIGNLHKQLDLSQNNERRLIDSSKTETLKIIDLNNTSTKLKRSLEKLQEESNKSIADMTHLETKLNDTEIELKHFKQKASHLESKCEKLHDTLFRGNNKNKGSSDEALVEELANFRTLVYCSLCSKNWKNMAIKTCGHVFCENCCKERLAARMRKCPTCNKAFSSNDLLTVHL

GST-Srs2 = biological target: T5, GST-Srs2 (yeast (Saccharomyces cerevisiae), UniProt P12954 1-1174); assay: pull-down; GST-Srs2 on beads with 6xHis-tagged WT, truncated or mutated Bre1; detected by Western blot with an anti-His antibody; whether ssDNA was included is not told
T5 construct: Srs2 helicase, yeast; also called recombinant GST-Srs2
T5 sequence (looked up): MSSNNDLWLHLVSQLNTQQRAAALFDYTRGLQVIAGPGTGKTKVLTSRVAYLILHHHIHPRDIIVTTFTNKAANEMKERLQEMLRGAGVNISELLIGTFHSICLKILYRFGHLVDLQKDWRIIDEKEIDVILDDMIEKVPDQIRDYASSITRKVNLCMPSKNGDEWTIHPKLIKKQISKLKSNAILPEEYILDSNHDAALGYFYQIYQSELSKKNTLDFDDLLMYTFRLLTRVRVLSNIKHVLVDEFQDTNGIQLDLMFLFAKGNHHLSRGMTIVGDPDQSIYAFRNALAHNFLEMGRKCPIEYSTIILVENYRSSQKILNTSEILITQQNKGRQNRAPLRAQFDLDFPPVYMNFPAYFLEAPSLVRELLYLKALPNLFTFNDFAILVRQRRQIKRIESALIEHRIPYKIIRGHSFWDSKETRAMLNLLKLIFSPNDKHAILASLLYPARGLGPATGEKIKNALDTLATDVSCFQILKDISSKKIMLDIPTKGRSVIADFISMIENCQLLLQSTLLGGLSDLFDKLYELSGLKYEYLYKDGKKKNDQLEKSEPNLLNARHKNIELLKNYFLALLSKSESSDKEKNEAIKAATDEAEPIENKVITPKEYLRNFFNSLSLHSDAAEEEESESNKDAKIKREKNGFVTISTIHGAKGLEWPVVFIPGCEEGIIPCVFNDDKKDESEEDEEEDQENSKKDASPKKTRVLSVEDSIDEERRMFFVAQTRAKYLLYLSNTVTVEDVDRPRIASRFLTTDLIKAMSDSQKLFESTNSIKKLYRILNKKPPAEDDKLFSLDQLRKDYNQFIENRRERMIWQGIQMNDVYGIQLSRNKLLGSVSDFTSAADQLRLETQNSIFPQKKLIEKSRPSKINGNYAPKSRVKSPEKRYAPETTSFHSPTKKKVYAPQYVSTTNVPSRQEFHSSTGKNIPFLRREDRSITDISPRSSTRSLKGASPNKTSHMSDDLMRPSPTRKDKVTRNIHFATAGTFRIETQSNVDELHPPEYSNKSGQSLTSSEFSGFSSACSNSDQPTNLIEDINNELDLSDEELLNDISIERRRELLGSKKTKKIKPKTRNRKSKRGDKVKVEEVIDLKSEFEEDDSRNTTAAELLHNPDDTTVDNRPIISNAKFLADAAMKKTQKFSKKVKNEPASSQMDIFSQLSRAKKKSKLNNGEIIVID

Binder: B1
- binding result (GST-RNF20): binds

B2: GST-RNF20N (domain or fragment, human, UniProt Q5VTR2 1-300, looked up)
chain: MSGIGNKRAAGEPGTSMPPEKKAAVEDSGTTVETIKLGGVSSTEELDIRTLQTKNRKLAEMLDQRQAIEDELREHIEKLERRQATDDASLLIVNRYWSQFDENIRIILKRYDLEQGLGDLLTERKALVVPEPEPDSDSNQERKDDRERGEGQEPAFSFLATLASSSSEEMESQLQERVESSRRAVSQIVTVYDKLQEKVELLSRKLNSGDNLIVEEAVQELNSFLAQENMRLQELTDLLQEKHRTMSQEFSKLQSKVETAESRVSVLESMIDDLQWDIDKIRKREQRLNRHLAEVLERVN
notes: also called N-terminal fragment RNF20N (1-300 aa)
- binding result (6xHis-hRad51): binds

B3: 6xHis-Rad51 (natural protein, yeast (Saccharomyces cerevisiae), UniProt P25454 1-400, looked up)
chain: MSQVQEQHISESQLQYGNGSLMSTVPADLSQSVVDGNGNGSSEDIEATNGSGDGGGLQEQAEAQGEMEDEAYDEAALGSFVPIEKLQVNGITMADVKKLRESGLHTAEAVAYAPRKDLLEIKGISEAKADKLLNEAARLVPMGFVTAADFHMRRSELICLTTGSKNLDTLLGGGVETGSITELFGEFRTGKSQLCHTLAVTCQIPLDIGGGEGKCLYIDTEGTFRPVRLVSIAQRFGLDPDDALNNVAYARAYNADHQLRLLDAAAQMMSESRFSLIVVDSVMALYRTDFSGRGELSARQMHLAKFMRALQRLADQFGVAVVVTNQVVAQVDGGMAFNPDPKKPIGGNIMAHSSTTRLGFKKGKGCQRLCKVVDSPCLPEAECVFAIYEDGVGDPREEDE
notes: Rad51 recombinase, yeast; also called 6xHis-tagged Rad51; yeast Rad51; source: E. coli BL21 (DE3), purified (Ni-NTA)
- binding result (GST-Bre1): binds
- binding result [1]: binds
- binding result (6xHis-Bre1): binds

B4: 6xHis-tagged Bre1 truncation 1-501 aa (domain or fragment, yeast (Saccharomyces cerevisiae), UniProt Q07457 1-501, looked up)
chain: MTAEPATKKIKLELSDPSEPLTQSDVIAFQKEALFRCINRRRVDFEALRKQYELSRRECIDVSRKLANIMALIVTLARFIETFCTDANEKQLCREIAQGDETLIVQRSDSFMKLLTKYGKPNTTDSNTNSNASDHIQELTTELKNLRKSKEELFYENSQLTEEISALKEYYTNIIRKYDRDESFTIKRVFKEDKTDAVKELREDEKESNENNIKSGNKDSSAINGDNTSKKSEKGDELVQAEDERKEDAENEKLELDLKFSDLRAEINSLSSTIKDLENIRRENEEELIKTRSEVSNLKKQQIAAADQDPDFKSYDHESLLAKIQHLTEQNAELSEINSSFLSKFQVLAKEKEIYTKKVREEFQKSLDSLVEMNSSLEKDVVRIRTARDDLLSKIAILEAEKSKTEVLSDLQHAIDILKEQWTKIDQRSNDTKSSSTQDALIKEIQDLEKGFRELSDLTHKKYSEIINHESVISKLTVEKTKADQKYFAAMRSKDSILIEI
notes: source: recombinant, 6xHis-tagged
- binding result (GST-Srs2): binds
